Tested on: Bacillus subtilis
Assay: cleaved RNA product abundance (RNA/gDNA barcode ratio) relative to median wild-type variant (ratio to wild type); higher = more accumulation of the downstream cleavage product
Conditions: cleavage site: cggR-gapA (positions -7 to +36 mutated)
In short: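 B. subtilis strains with chromosomally integrated reporter mRNAs (truncated aprE or tetM) holding barcoded, mutagenized RNase Y cleavage-site windows grew in LB at 37°C from OD600 0.0003 to 0.3. Cleaved product abundance is each construct's RNA:gDNA barcode ratio, scaled to the median construct with the unmutated site. It came from sequencing barcodes of gel-selected, reverse-transcribed cleaved RNA and of genomic DNA.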

[1] = experiment (reporter, strain, medium): exp 2b: truncated aprE reporter, strain BJT200
[2] = experiment (reporter, strain, medium): exp 4a: truncated aprE reporter, strain BJT201 with 2% xylose (RNase J1 expressed)
[3] = experiment (reporter, strain, medium): exp 6: tetM reporter, strain 168

ACAGACGAAGGAGCCGCAAAGAAGTTATTAAGGGAAGAATAATCCCTCAAAATAAATATCTCTCACTTATTTAAA
cleaved RNA product abundance [1]: 0.17
cleaved RNA product abundance [2]: 0.182

ACAGACGAAGGAGCCGCAAAGAAGTTATTAAGGGAAGAATAATCCCTCAACATAAATATCTCTCACTTATTTAAA
cleaved RNA product abundance [1]: 0.133
cleaved RNA product abundance [2]: 0.257

ACAGACGAAGGAGCCGCAAAGAAGTTATTAAGGGAAGAATAATCCCTCAATATAAAAATCTCTCACTTATTTAAA
cleaved RNA product abundance [2]: 0.563

ACAGACGAAGGAGCCGCAAAGAAGTTATTAAGGGAAGAATAATCCCTCAATATAAAGATCTCTCACTTATTTAAA
cleaved RNA product abundance [2]: 0.495

ACAGACGAAGGAGCCGCAAAGAAGTTATTAAGGGAAGAATAATCCCTCAATATAAATAACTCTCACTTATTTAAA
cleaved RNA product abundance [2]: 0.434

ACAGACGAAGGAGCCGCAAAGAAGTTATTAAGGGAAGAATAATCCCTCAATATAAATATCTCTCACTTATTTAAA
cleaved RNA product abundance [1]: 0.485
cleaved RNA product abundance [2]: 0.633
cleaved RNA product abundance [3]: 0.691

ACAGACGAAGGAGCCGCAAAGAAGTTATTAAGGGAAGAATAATCCCTCAATATAAATTTCTCTCACTTATTTAAA
cleaved RNA product abundance [1]: 0.471

ACAGACGAAGGAGCCGCAAAGAAGTTATTAAGGGAAGAATAATCCCTCAATATAATTATCTCTCACTTATTTAAA
cleaved RNA product abundance [1]: 0.292
cleaved RNA product abundance [2]: 0.314

ACAGACGAAGGAGCCGCAAAGAAGTTATTAAGGGAAGAATAATCCCTCAATATATATATCTCTCACTTATTTAAA
cleaved RNA product abundance [1]: 0.393
cleaved RNA product abundance [2]: 0.563

ACAGACGAAGGAGCCGCAAAGAAGTTATTAAGGGAAGAATAATCCCTCAATATGAATATCTCTCACTTATTTAAA
cleaved RNA product abundance [2]: 0.0705

ACAGACGAAGGAGCCGCAAAGAAGTTATTAAGGGAAGAATAATCCCTCACTATAAATATCTCTCACTTATTTAAA
cleaved RNA product abundance [1]: 0.187

ACAGACGAAGGAGCCGCAAAGAAGTTATTAAGGGAAGAATAATCCCTCAGTATAAATATCTCTCACTTATTTAAA
cleaved RNA product abundance [1]: 0.153
cleaved RNA product abundance [2]: 0.29

ACAGACGAAGGAGCCGCAAAGAAGTTATTAAGGGAAGAATAATCCCTCATTATAAATATCTCTCACTTATTTAAA
cleaved RNA product abundance [1]: 0.208
cleaved RNA product abundance [2]: 0.216

ACAGACGAAGGAGCCGCAAAGAAGTTATTAAGGGAAGAATAATCCCTCCATATAAATATCTCTCACTTATTTAAA
cleaved RNA product abundance [2]: 0.202

ACAGACGAAGGAGCCGCAAAGAAGTTATTAAGGGAAGAATAATCCCTCGATATAAATATCTCTCACTTATTTAAA
cleaved RNA product abundance [2]: 0.521

ACAGACGAAGGAGCCGCAAAGAAGTTATTAAGGGAAGAATAATCCCTCTATATAAATATCTCTCACTTATTTAAA
cleaved RNA product abundance [2]: 0.239

ACAGACGAAGGAGCCGCAAAGAAGTTATTAAGGGAAGAATAATCCCTGAATATAAATATCTCTCACTTATTTAAA
cleaved RNA product abundance [2]: 0.374

ACAGACGAAGGAGCCGCAAAGAAGTTATTAAGGGAAGAATAATCCCTTAATATAAATATCTCTCACTTATTTAAA
cleaved RNA product abundance [1]: 1.05
cleaved RNA product abundance [2]: 0.952

ACAGACGAAGGAGCCGCAAAGAAGTTATTAAGGGAAGAATAATCCGTCAATATAAATATCTCTCACTTATTTAAA
cleaved RNA product abundance [1]: 0.0722

ACAGACGAAGGAGCCGCAAAGAAGTTATTAAGGGAAGAATAATCCTTCAATATAAATATCTCTCACTTATTTAAA
cleaved RNA product abundance [1]: 0.13
cleaved RNA product abundance [2]: 0.144

ACAGACGAAGGAGCCGCAAAGAAGTTATTAAGGGAAGAATAATCGCTCAATATAAATATCTCTCACTTATTTAAA
cleaved RNA product abundance [2]: 0.114

ACAGACGAAGGAGCCGCAAAGAAGTTATTAAGGGAAGAATAATCTCTCAATATAAATATCTCTCACTTATTTAAA
cleaved RNA product abundance [1]: 0.124
cleaved RNA product abundance [2]: 0.201

ACAGACGAAGGAGCCGCAAAGAAGTTATTAAGGGAAGAATAATGCCTCAATATAAATATCTCTCACTTATTTAAA
cleaved RNA product abundance [1]: 0.0918
cleaved RNA product abundance [2]: 0.132

ACAGACGAAGGAGCCGCAAAGAAGTTATTAAGGGAAGAATAATTCCTCAATATAAATATCTCTCACTTATTTAAA
cleaved RNA product abundance [1]: 0.165
cleaved RNA product abundance [2]: 0.21

ACAGACGAAGGAGCCGCAAAGAAGTTATTAAGGGAAGAATACTCCCTCAATATAAATATCTCTCACTTATTTAAA
cleaved RNA product abundance [1]: 0.632
cleaved RNA product abundance [2]: 1.01

ACAGACGAAGGAGCCGCAAAGAAGTTATTAAGGGAAGAATAGTCCCTCAATATAAATATCTCTCACTTATTTAAA
cleaved RNA product abundance [2]: 0.594

ACAGACGAAGGAGCCGCAAAGAAGTTATTAAGGGAAGAATATTCCCTCAATATAAATATCTCTCACTTATTTAAA
cleaved RNA product abundance [1]: 0.797
cleaved RNA product abundance [2]: 0.603

ACAGACGAAGGAGCCGCAAAGAAGTTATTAAGGGAAGAATGATCCCTCAATATAAATATCTCTCACTTATTTAAA
cleaved RNA product abundance [2]: 0.925

ACAGACGAAGGAGCCGCAAAGAAGTTATTAAGGGAAGAATTATCCCTCAATATAAATATCTCTCACTTATTTAAA
cleaved RNA product abundance [2]: 0.771

ACAGACGAAGGAGCCGCAAAGAAGTTATTAAGGGAAGACTAATCCCTCAATATAAATATCTCTCACTTATTTAAA
cleaved RNA product abundance [2]: 0.452

ACAGACGAAGGAGCCGCAAAGAAGTTATTAAGGGAAGCATAATCCCTCAATATAAATATCTCTCACTTATTTAAA
cleaved RNA product abundance [2]: 0.551

ACAGACGAAGGAGCCGCAAAGAAGTTATTAAGGGAAGTATAATCCCTCAATATAAATATCTCTCACTTATTTAAA
cleaved RNA product abundance [1]: 0.599

ACAGACGAAGGAGCCGCAAAGAAGTTATTAAGGGAATAATAATCCCTCAATATAAATATCTCTCACTTATTTAAA
cleaved RNA product abundance [1]: 0.811
cleaved RNA product abundance [2]: 0.934

ACAGACGAAGGAGCCGCAAAGAAGTTATTAAGGGAATGAATAATCCCTCAATATAAATATCTCTCACTTATTTAA
cleaved RNA product abundance [2]: 0.604

ACAGACGAAGGAGCCGCAAAGAAGTTATTAAGGGACAAATAATCCCTCAATATAAATATCTCTCACTTATTTAAA
cleaved RNA product abundance [2]: 0.84

ACAGACGAAGGAGCCGCAAAGAAGTTATTAAGGGACGAATAAACCCTCAATATAAATATCTCTCACTTATTTAAA
cleaved RNA product abundance [1]: 0.197
cleaved RNA product abundance [2]: 0.237

ACAGACGAAGGAGCCGCAAAGAAGTTATTAAGGGACGAATAACCCCTCAATATAAATATCTCTCACTTATTTAAA
cleaved RNA product abundance [2]: 0.19

ACAGACGAAGGAGCCGCAAAGAAGTTATTAAGGGACGAATAATACCTCAATATAAATATCTCTCACTTATTTAAA
cleaved RNA product abundance [2]: 0.12

ACAGACGAAGGAGCCGCAAAGAAGTTATTAAGGGACGAATAATCAATCAATATAAATATCTCTCACTTATTTAAA
cleaved RNA product abundance [2]: 0.132

ACAGACGAAGGAGCCGCAAAGAAGTTATTAAGGGACGAATAATCACTCAATATAAATATCTCTCACTTATTTAAA
cleaved RNA product abundance [2]: 0.0856

ACAGACGAAGGAGCCGCAAAGAAGTTATTAAGGGACGAATAATCCATCAATATAAATATCTCTCACTTATTTAAA
cleaved RNA product abundance [2]: 0.0728

ACAGACGAAGGAGCCGCAAAGAAGTTATTAAGGGACGAATAATCCCACAATATAAATATCTCTCACTTATTTAAA
cleaved RNA product abundance [1]: 0.13

ACAGACGAAGGAGCCGCAAAGAAGTTATTAAGGGACGAATAATCCCGCAATATAAATATCTCTCACTTATTTAAA
cleaved RNA product abundance [2]: 0.132

ACAGACGAAGGAGCCGCAAAGAAGTTATTAAGGGACGAATAATCCCTAAATATAAATATCTCTCACTTATTTAAA
cleaved RNA product abundance [2]: 0.287

ACAGACGAAGGAGCCGCAAAGAAGTTATTAAGGGACGAATAATCCCTCAAAATAAATATCTCTCACTTATTTAAA
cleaved RNA product abundance [2]: 0.346

ACAGACGAAGGAGCCGCAAAGAAGTTATTAAGGGACGAATAATCCCTCAATATAAATAGCTCTCACTTATTTAAA
cleaved RNA product abundance [2]: 0.3

ACAGACGAAGGAGCCGCAAAGAAGTTATTAAGGGACGAATAATCCCTCAATATAAATATCTCTCACTTATTTAAA
cleaved RNA product abundance [1]: 0.691
cleaved RNA product abundance [2]: 0.697
cleaved RNA product abundance [3]: 0.805

ACAGACGAAGGAGCCGCAAAGAAGTTATTAAGGGACGAATAATCCCTCAATATAAATCTCTCTCACTTATTTAAA
cleaved RNA product abundance [2]: 0.53

ACAGACGAAGGAGCCGCAAAGAAGTTATTAAGGGACGAATAATCCCTCAATATAAATTTCTCTCACTTATTTAAA
cleaved RNA product abundance [2]: 0.559

ACAGACGAAGGAGCCGCAAAGAAGTTATTAAGGGACGAATAATCCCTCAATATATATATCTCTCACTTATTTAAA
cleaved RNA product abundance [1]: 0.629
cleaved RNA product abundance [2]: 0.771

ACAGACGAAGGAGCCGCAAAGAAGTTATTAAGGGACGAATAATCCCTCAATCTAAATATCTCTCACTTATTTAAA
cleaved RNA product abundance [2]: 0.0944

ACAGACGAAGGAGCCGCAAAGAAGTTATTAAGGGACGAATAATCCCTCAGTATAAATATCTCTCACTTATTTAAA
cleaved RNA product abundance [2]: 0.415

ACAGACGAAGGAGCCGCAAAGAAGTTATTAAGGGACGAATAATCCCTCATTATAAATATCTCTCACTTATTTAAA
cleaved RNA product abundance [1]: 0.215
cleaved RNA product abundance [2]: 0.326
